The values below come from PMC12380274.

For assay [1], the target named is chicken p32/C1QBP/gC1qR clone M9 (residues 76-278) fused to the GAL4 activation domain (UniProt A0A8V1AMS0). As to the kind of experiment: yeast two-hybrid, liquid β-galactosidase (ONPG) assay. The conditions noted are these: triplicates over three independent experiments; for response: parent: 16.2.
Assay [2] has as its target full-length pUL47 (RB-1B) with SR motif 3 mutated to AA, fused to the GAL4 DNA-binding domain (Marek's Disease Virus (Gallid alphaherpesvirus 2), strain RB-1B). As to the kind of experiment: two-hybrid; SR mutants and Δ71-185 of pUL47 in pGBKT7 against p32(M9); β-galactosidase coloration and liquid β-galactosidase quantification relative to full-length pUL47 (1-808), triplicates over three experiments (Fig 4B, 4C).

Assay [3] deals with full-length pUL47 (RB-1B) with SR motif 4 mutated to AA, fused to the GAL4 DNA-binding domain (Marek's Disease Virus (Gallid alphaherpesvirus 2), strain RB-1B). Described as above.
Assay [4] concerns the target pUL47 (RB-1B) domain 71-185 fused to the GAL4 DNA-binding domain (Marek's Disease Virus (Gallid alphaherpesvirus 2), strain RB-1B). The assay is described as above.

For “pUL47 (RB-1B) domain 71-185 fused to the GAL4 DNA-binding domain SR2 (SR motif 2, Ser-Arg to Ala-Ala)”, in assay [1], the response was found to be 13 % vs 1-808.
As to “pUL47 (RB-1B) domain 71-185 fused to the GAL4 DNA-binding domain SR3 (Ser-Arg to Ala-Ala); SR4 (Ser-Arg to Ala-Ala)”, in assay [1], the response is 3.7 % vs 1-808.
For the substance “pUL47 (RB-1B) domain 71-185 fused to the GAL4 DNA-binding domain SR1 (Ser-Arg to Ala-Ala); SR2 (Ser-Arg to Ala-Ala)”, in assay [1], the response was found to be 24 % vs 1-808.
With “pUL47 of Marek's Disease Virus (RB-1B), full length, fused to the GAL4 DNA-binding domain (pGBKT7-UL47) SR3 (Ser-Arg to Ala-Ala); SR4 (Ser-Arg to Ala-Ala)”, the percent of parent in assay [1] (parent: 100) was 71.2 % vs 1-808.
With “pUL47 (RB-1B) domain 71-185 fused to the GAL4 DNA-binding domain SR1 (SR motif 1, Ser-Arg to Ala-Ala)”, the response in assay [1] was found to be 25.4 % vs 1-808.
For the substance “pUL47 (RB-1B) domain 71-185 fused to the GAL4 DNA-binding domain SR5 (Ser-Arg to Ala-Ala); SR6 (Ser-Arg to Ala-Ala)”, the response in assay [1] turned out to be 10.1 % vs 1-808.
The same measure, in the same setting: then “pUL47 (RB-1B) domain 71-185 fused to the GAL4 DNA-binding domain SR6 (SR motif 6, Ser-Arg to Ala-Ala)”, with 8.2 % vs 1-808.
“pUL47 (RB-1B) domain 71-185 fused to the GAL4 DNA-binding domain SR5 (SR motif 5, Ser-Arg to Ala-Ala)”: the response in assay [1] stood at 20.4 % vs 1-808.
Take “chicken p32/C1QBP/gC1qR clone M9 (residues 76-278) fused to the GAL4 activation domain (from UniProt A0A8V1AMS0 76-278) (domain or fragment)”: the reduction of β-galactosidase signal against full-length pUL47 in assay [2] and in assay [3] was 30% in each case. The substance also returned a β-galactosidase signal, percent of full-length pUL47 in assay [4] of 16%.
